IC50 data for eleven substances are collected here from patent publication US20120100140A1.

Usually IC50 stands for the concentration at which inhibition is half-maximal. Read a low IC50 as higher potency.

Experiment [1] concerns the target CD64 (FcγRI) (UniProt P12314). Kind of experiment: solution affinity SPR: inhibition of CD64 binding to immobilized IgG1 MAb.
Experiment [2] concerns the target CD32a (UniProt P12318). Description: solution affinity SPR: inhibition of CD32a binding to immobilized IgG1 MAb.
The target of experiment [3] is CD16 (FcγRIIIa V158) (UniProt P08637). Description: solution affinity SPR: inhibition of CD16 binding to immobilized IgG1 MAb.
Chain of CD16 (FcγRIIIa V158) (P08637 17-208 F176V limits assumed): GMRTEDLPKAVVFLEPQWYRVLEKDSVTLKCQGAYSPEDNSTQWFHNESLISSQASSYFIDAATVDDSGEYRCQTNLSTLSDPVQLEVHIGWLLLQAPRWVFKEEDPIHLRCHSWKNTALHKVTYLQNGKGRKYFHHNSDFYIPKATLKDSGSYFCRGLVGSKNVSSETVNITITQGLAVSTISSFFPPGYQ
Experiment [4] addresses CD64 (FcγRI) (UniProt P12314). Description: solution affinity SPR: antibody titrated into CD64, inhibition of CD64 binding to immobilized IgG1 MAb; average of two titrations.
Experiment [5] concerns the target CD16 (FcγRIIIa V158) (UniProt P08637). Description: solution affinity SPR: antibody titrated into CD16, inhibition of CD16 binding to immobilized IgG1 MAb; average of two titrations.

Chain of CD64 (FcγRI) (P12314 16-288 limits assumed): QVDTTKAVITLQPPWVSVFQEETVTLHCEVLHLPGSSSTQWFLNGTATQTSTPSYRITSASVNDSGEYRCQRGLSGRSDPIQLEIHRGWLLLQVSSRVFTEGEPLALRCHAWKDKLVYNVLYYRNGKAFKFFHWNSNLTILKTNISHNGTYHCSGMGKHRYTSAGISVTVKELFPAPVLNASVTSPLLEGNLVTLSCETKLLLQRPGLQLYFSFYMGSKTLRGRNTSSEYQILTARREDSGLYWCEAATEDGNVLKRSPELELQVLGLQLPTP
Chain of CD32a (P12318 34-217 limits assumed): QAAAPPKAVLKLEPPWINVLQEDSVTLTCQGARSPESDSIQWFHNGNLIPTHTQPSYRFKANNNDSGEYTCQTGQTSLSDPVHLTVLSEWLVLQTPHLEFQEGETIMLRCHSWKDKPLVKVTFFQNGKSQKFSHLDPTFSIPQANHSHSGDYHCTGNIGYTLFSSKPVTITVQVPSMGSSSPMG

Consider “EAG2378 (hu5c8 aglycosylated IgG1 T299R) (antibody)”, for which, in experiment [1], the concentration for half-maximal inhibition (IC50) worked out at 5970 µM. Substance “EAG2377 (hu5c8 aglycosylated IgG1 T299N) (antibody)” had a concentration for half-maximal inhibition (IC50) in experiment [1] of 586 µM. Regarding “EAG2379 (hu5c8 aglycosylated IgG1 T299E) (antibody)”, the IC50 in experiment [1] turned out to be 196 µM; in experiment [2], 1280 µM. For “EAG2478 (CN578-Fc; agly IgG1 Fc T299K, no Fab) (from UniProt P0DOX5 218-448)”, the half-inhibitory concentration (IC50) in experiment [3] turned out to be 6000 µM. This lies in the millimolar range. For “EAG2380 (hu5c8 aglycosylated IgG1 T299F) (antibody)”, the 50% inhibitory concentration (IC50) in experiment [1] came to 345 µM. With “CN578 (hu5c8 aglycosylated IgG1 T299K) (antibody)”, the IC50 in experiment [4] was determined as 1420 µM; in experiment [3] it was 1320 µM. Substance “EAG2390 (hu5c8 aglycosylated IgG1 T299P) (antibody)” came in with an IC50 in experiment [1] of 392 µM. As to “EAG2389 (hu5c8 aglycosylated IgG1 T299Q) (antibody)”, in experiment [1], the half-inhibitory concentration (IC50) worked out at 455 µM. This IC50 and that of the substance before are within 1.5-fold of each other.

As to “IgG1 control antibody (hu5c8 wild-type glycosylated IgG1)”, the 50% inhibitory concentration (IC50) in experiment [4] amounted to 9.64 µM; in experiment [5], 100 µM; in experiment [3], 105 µM.

In turn, “IgG1 T299A (hu5c8 aglycosylated IgG1) (antibody)” displayed an IC50 in experiment [4] of 205 µM. In experiment [3], “EAG2476 (YC406-Fc; agly IgG4-Fc T299K, T307P, L309K, D399S, no Fab) (from UniProt P01861 99-325)” displayed an IC50 of 1320 µM.
